The data set can be described thus: soluble on expression in E. coli; label from the status in PepcDB or PDB records.
Turning to “MALKPTIYKFRIALSDMNNDYYDSKNLTIALHPSEKPQRMLARILAFCLNAQKDLEFTKGLSTTEEPDLWHVADDQSITHWIEIGEPEPDRIKKASRLAKQVKVYTYNTKAPVWWEKMSGKFSMLPVSVESFDYDAIDMICQHLDRGTNLSVMITGTSIFVDVNDQHVEVTVKELQSHDAP”, the “soluble on expression in E. coli” value is given as “not soluble”.
Next, “MSLSFSMKIKNIPYYVATRVVKRIQSWLGLNTLGARAIVTNAEGHVLLVKHTYQPHWYLPGGGVKKGESTKAAVIRELHEEVGLVVAEQDVILFGIYHHKYLGVNDYPVIYIVKNFTSHVTHSGEIEQIGWFSLDALPEMVSPGTKRRLGEYFDNNPISEKWEGHHHHHH”: “soluble”.
As to “MYIPNAFRESDTHNLQEHMDKTRLAILVTQGDDGLHATHLPLLLRSDEGPYGTLYGHMAKANPQWQQLNADAEAMVIFPGEDAYVSPSFYPSKAEHGKVVPTWNYLAVHAYGQAECFTDPDRLHQLLNDLTDRHESSRAQPWSINDAPADYIAKMLGAIVGFSIPVQRLQGKRKLSQNRSAEDMAGVRDGLGASHLANDQQIARLMSGWRPS”, the “soluble on expression in E. coli” value was “not soluble”.
Next, “MIQEPARVQAAPTFEATIREDNAKYQETAAGGTYSSPNCSCSQRRTRPTEPTKDSPTSTITTIPIVIDSKPNPRILLIRVPTSNRGSNSNNNSNSTRSGTEHRAPRTRIIRIPFLPGSVPTRPPSNQAAPATSSLVNPIGSARRCRISTYPTTGTLTSRSQPETVAGLPTTAMVNQTVPVLSSAPQTQTLAAMAGIQLTGADEPPSRRDVSGAMPTATVEEIDVPVFIDEYLQDIEATSSTCNSENGKEIFTETDILDFDINMFAEEDLIELEGKKTDPFSPAMDGMNNDNLDDDFLQLNDLLNEEETFDMSSMSGVGIDINQEQELDFINIFHNSQPTAMLTSSEDPYLATYSQATSTSSTTKFITEEPLLADMTSFDISYTSSQELGFGLVEDVSGSFASSCSDVAAAIPAPIQHPIITNIKRSAPAPVESQPTKRSRLMLQIKTELAPAFSPTTPEIINQLLNDDRFEAPTTSTSTSTSNTSISSSTHADIVEDLRSAEEETTTDFSAPNTPHSNYSASSSCAAPTCQTGYGGFLTAPTSPAYSTASTSVFSPSPASGISGKRKRGRPAKDHADGPDPVLMSSMKSEEERKAYQDRLKNNEASRVSRRKTKVREEEEKRAEDTLLAENLRLRARADEVASRERKFKKYLMERQRQKSTYVKQEQD”: “not soluble”; “MGSDKIHHHHHHVLINQQYTRHGPDYRFGEQVTFLDVKQTFGFSHVRVGRWVTRDESRLAADLVFDSLADLAFILKLPPLKLGLRETVSLAFGHGGQKGVQAHYAPAARELALAKNAGAGALAHEFWHAFDHYIAAKSFKSSSKRFQCASDLWLSDLPIIEHPLNARLSEIFKVTFLSGNGDEPHDYVRRAIALDKKHGMQYFARPTEMMARAFEACIESYDDISNPYLVSGTRFSAMAKEGAYPDEAHRKVIFQALINYFEPLGMALSKHPLG”: “not soluble”.
Next, “SLKVKAINLYTYKEPFKSPISTPKVKLTHRESLFTEIVTYSGETYYGECNAFLTNWYDKETILTVVNRLRQWIPQVLHKDMTSFDSWLPYLNQMNDAPAARSMVVMAVYQMYNDLHDFEVQYGATVSGLTNSQIETLLETRPKRIKLKWSTSLIKDLETIRLLNFDCDIAIDANESLTKPSFLQLANVNTSDIIYIEEPFKILEDLNDIDMSIFPRIAIDEKALSIEKIQSIIQQYPIQVVVLKPFRLGGIDRMLNAMKILKEKNIRFVVGGMYEFGLSRYFTAMLAKEGSYPGDITPHGYYFSNDIVETSGILKGGMIYFTPPKVKRSLLNKV”: “soluble”; “MGSDKIHHHHHHMLIEKELSELTVGHYVVKIIQQEGCFSLTAAGHIKSKAVINHLKSKNVHRVLIDDSKTLLSSSHEKSATVDAPSIVKNKELKHAKAIFDQSKSIQKKLFHDALSGSCLDLSPVVEVTNKSIDAIFNSPDSLACMLNIREKDEYLLEHSVAVSVYITIFSRYLDLERHIIEQLSIGAFLHDIGKIKIPDKILNKPGKLTVDEFTIMKTHANHSIAIIKETPGISALSLEVAALHHEKLDGSGYPFQVDGEDISQYGRMIAICDIFDALTATRVYKEGFTHGKAFSILRELAKQGQLDASLVDHFIKCVGVFPVGSLVQLKSNKLALVQERNDKDPINPQVHSFYSVKLNQFLNKQEIDLSGSEDSIVKSVRAEEFDLDMKQIVDMLLMEG”: “not soluble”.
Next, “MRVALFITCLADHFYPKAGVAPVRLLRALGVKVDFPKGQTCCGQPAFNAGYWDEARPLAKRTLEVFEEAEYVVLPSGSCTSMVKNHYPELLPGNREALAMAEKTYELSQFLVRVLGVEKLGEGLKGRRVAYHHGCHALRELGVREEPLLLLQNAGAEVLPWEAWEECCGFGGLFSVKLPEVSLAMADRKLATLPKAEVLTSTDAGCLLHLAGRLGKKGENLRVAPLATLLWEAYAG”: “soluble”; “MGHHHHHHSHMSHGHSHGGGGCRCAAEREEPPEQRGLAYGLYLRIDLERLQCLNESREGSGRGVFKPWEERTDRSKFVESDADEELLFNIPFTGNVKLKGIIIMGEDDDSHPSEMRLYKNIPQMSFDDTEREPDQTFSLNRDLTGELEYATKISRFSNVYHLSIHISKNFGADTTKVFYIGLRGEWTELRRHEVTICNYEASANPADHRVHQVTPQTHFIS”: “not soluble”.
Regarding “LTTHNFARKTFLKLAFCDICQKFLLNGFRCQTCGYKFHEHCSTKVPTMCVDW”, the “soluble on expression in E. coli” value was “soluble”.
Next, “MGSDKIHHHHHHMTTSTNERTTRAELQDAPRVARLHPQPDYRISVGGRDLSRLFAPRLVSLSISESRSDEADTIDIVLDDSKNDLDIPKRGATIKASIGWAGEPLVDKGSFVVNEVEHSGAPDIITIRARSAAMTSGMQERREKSWHRQTIGSIVHAIAGRYSLSPTVGDALAKILIAHIDQTHESDMSFLTRLAKRYDAVMNVKDLRLLFMPIGTGQTATGKKLDVLELTRASGDSHRYHVSERENYAAVRAHYHSTGRAKRKSVIVGGENNKNVKVLPEDYATEAEARAAAQAEFKRMQRSQATMSYTLARGRAELFPEMPVTVSGFKPEIDETPWLVKKATHTIGDVGFTTALELEMRDDPTTERHRSHFQGSR”: “not soluble”.
The same measure for “KQLLFMHSSASVESLERPYLETMPGQYAAEITLFEWLDFLLERGGVKRALKAIEYYETVGWVSADAAERLQGHVRGFSGPADDDSHSDLEMSDHVLSLVYIARLSSMQ”: “not soluble”; for “MGSDKIHHHHHHAQLSDNGYANVDWQFNAPLKNHFADKASGWGMNFEGGYFVTPNLGLGLFMNYSSNHEYFPRATFPVGEGTVNTDQQHTIFQLPFGAAARYQMNRGGAWQPYFGVKLGANYAKVRSNYNMFETRDNTWGFYVSPEIGLNVYPWAYGPGLHIAVYYSYATNKANVLTYNVDKLNNFGFRVGLAF”: “not soluble”.
The same measure for “MATPAFVKRITRSDAVLSLGVNFSKIYFKFVMWTGRYDRQAVPIPEPYILAMWHGRLIMAPMLQTKSKPLVALISGHRDGKIISRVGAAFGIQTAVGSSSKGGMRAAREMMRLGKSGHSLFVTPDGPRGPRMRINSEGVLDMARLTGLPILPVSVSLSRHKLLRSWDRLMLPGLFAKVAIRFGEPITVEAGSPTAEMAERLQAALTAAQNETDRIVGLQPVETALEHHHHHH”: “soluble”.
Take “MDIKNSPSSLNSPSSYNCSQSILPLEHGSIYIPSSYVDSHHEYPAMTFYSPAVMNYSIPSNVTNLEGGPGRQTTSPNVLWPTPGHLSPLVVHRQLSHLYAEPQKSPWCEARSLEHTLPVNRETLKRKVSGNRCASPVTGPGSKRDAHFCAVCSDYASGYHYGVWSCEGCKAFFKRSIQGHNDYICPATNQCTIDKNRRKSCQACRLRKCYEVGMVKCGSRRERCGYRLVRRQRSADEQLHCAGKAKRSGGHAPRVRELLLDALSPEQLVLTLLEAEPPHVLISRPSAPFTEASMMMSLTKLADKELVHMISWAKKIPGFVELSLFDQVRLLESCWMEVLMMGLMWRSIDHPGKLIFAPDLVLDRDEGKCVEGILEIFDMLLATTSRFRELKLQHKEYLCVKAMILLNSSMYPLVTATQDADSSRKLAHLLNAVTDALVWVIAKSGISSQQQSMRLANLLMLLSHVRHASNKGMEHLLNMKCKNVVPVYDLLLEMLNAHVLRGCKSSITGSECSPAEDSKSKEGSQNPQSQ”: the “soluble on expression in E. coli” value is recorded as “soluble”.
